# Assay results: patent US20040018971A1 (published 2004)
# Where no end group is shown, it is not given here. [ ]: non-standard residue; d: D form. Abu = CC[C@H](N)C(=O)O
# B1: Her2/neu.600 (peptide)
# peptide: CPSGVKPDLSY
# notes: native HER2/neu peptide from position 600
# B2: Her2/neu.65 (9-mer) (peptide)
# peptide: LPTNASLSF
# notes: native HER2/neu peptide from position 65
# B3: Her2/neu.218.B3B7 (peptide)
# peptide: TV[Abu]AGG[Abu]AR
# notes: synthetic analog peptide; also called TVBAGGBAR
# B4: Her2/neu.528.B1B4 (peptide)
# peptide: [Abu]VN[Abu]SQFLR
# notes: synthetic analog peptide; also called BVNBSQFLR
# B5: Her2/neu.528.B1B4K9 (peptide)
# peptide: BVNBSQFLK
# modifications: B at positions 1 and 4 = alpha-amino butyric acid (in place of cysteine)
# notes: synthetic analog peptide; also called BVNBSQFLK
# Target: HLA-B*0702 (human)
# Assay: competition with 125I probe peptide, purified HLA
row,Binder,IC50 [nM]
1,FPTNASLSFL (analog peptide) [Her2/neu.65.F1 (10-mer)],18
2,B1,183
3,FPSGVKPDLSI (analog peptide) [Her2/neu.600.F1I11],196

# Target: HLA-B*3501 (human)
# Assay: competition with 125I probe peptide, purified HLA
row,Binder,IC50 [nM]
1,FPTNASLSFL (analog peptide) [Her2/neu.65.F1 (10-mer)],200
2,B1,3600
3,FPSGVKPDLSI (analog peptide) [Her2/neu.600.F1I11],3270
4,B2,114

# Target: HLA-B*5101 (human)
# Assay: competition with 125I probe peptide, purified HLA
row,Binder,IC50 [nM]
1,FPTNASLSFL (analog peptide) [Her2/neu.65.F1 (10-mer)],262
2,B2,809

# Target: HLA-B*5301 (human)
# Assay: competition with 125I probe peptide, purified HLA
row,Binder,IC50 [nM]
1,FPTNASLSFL (analog peptide) [Her2/neu.65.F1 (10-mer)],172
2,B2,34

# Target: HLA-A*0301 (human)
# Assay: inhibition of 125I probe peptide binding to purified HLA
row,Binder,IC50 [nM]
1,ILKGGVLIQR (synthetic peptide) [Her2/neu.148],275
2,IVKGGVLIQK (synthetic analog peptide) [Her2/neu.148.V2K10],26
3,B3,314
4,IVWLGLRSLR (synthetic analog peptide) [Her2/neu.450.V2],234
5,ISWLGLRSLR (synthetic peptide) [Her2/neu.450],268
6,TILWKDIFHK (synthetic peptide) [Her2/neu.166],256
7,B4,177
8,B5,34
9,HVVPWDQLFR (synthetic analog peptide) [Her2/neu.478.V2],7330
10,HTVPWDQLFR (synthetic peptide) [Her2/neu.478],3140
11,CVNCSQFLR (synthetic peptide) [Her2/neu.528],7330
12,IVWKDIFHK (synthetic analog peptide) [Her2/neu.167.V2],23
13,IVWKDIFHR (synthetic analog peptide) [Her2/neu.167.V2R9],143
14,ILWKDIFHK (synthetic peptide) [Her2/neu.167],39
15,QLRSLTEILK (synthetic peptide) [Her2/neu.141],55
16,TVLWKDIFHR (synthetic analog peptide) [Her2/neu.166.V2R10],8460

# Target: HLA-A*1101 (human)
# Assay: as above
row,Binder,IC50 [nM]
1,IVKGGVLIQK (synthetic analog peptide) [Her2/neu.148.V2K10],102
2,B3,111
3,IVWLGLRSLR (synthetic analog peptide) [Her2/neu.450.V2],1940
4,TILWKDIFHK (synthetic peptide) [Her2/neu.166],1.7
5,B4,80
6,B5,22
7,HVVPWDQLFR (synthetic analog peptide) [Her2/neu.478.V2],1330
8,HTVPWDQLFR (synthetic peptide) [Her2/neu.478],83
9,CVNCSQFLR (synthetic peptide) [Her2/neu.528],194
10,IVWKDIFHK (synthetic analog peptide) [Her2/neu.167.V2],40
11,IVWKDIFHR (synthetic analog peptide) [Her2/neu.167.V2R9],286
12,ILWKDIFHK (synthetic peptide) [Her2/neu.167],19
13,TVLWKDIFHR (synthetic analog peptide) [Her2/neu.166.V2R10],286

# Target: HLA-A*3101 (human)
# Assay: as above
row,Binder,IC50 [nM]
1,ILKGGVLIQR (synthetic peptide) [Her2/neu.148],25
2,IVKGGVLIQK (synthetic analog peptide) [Her2/neu.148.V2K10],450
3,B3,247
4,IVWLGLRSLR (synthetic analog peptide) [Her2/neu.450.V2],11
5,ISWLGLRSLR (synthetic peptide) [Her2/neu.450],6.9
6,TILWKDIFHK (synthetic peptide) [Her2/neu.166],487
7,B4,38
8,B5,60
9,HVVPWDQLFR (synthetic analog peptide) [Her2/neu.478.V2],391
10,HTVPWDQLFR (synthetic peptide) [Her2/neu.478],19
11,CVNCSQFLR (synthetic peptide) [Her2/neu.528],34
12,IVWKDIFHK (synthetic analog peptide) [Her2/neu.167.V2],247
13,IVWKDIFHR (synthetic analog peptide) [Her2/neu.167.V2R9],6
14,ILWKDIFHK (synthetic peptide) [Her2/neu.167],82
15,QLRSLTEILK (synthetic peptide) [Her2/neu.141],667
16,TVLWKDIFHR (synthetic analog peptide) [Her2/neu.166.V2R10],600

# Target: HLA-A*3301 (human)
# Assay: as above
row,Binder,IC50 [nM]
1,ILKGGVLIQR (synthetic peptide) [Her2/neu.148],121
2,IVKGGVLIQK (synthetic analog peptide) [Her2/neu.148.V2K10],6590
3,B3,242
4,IVWLGLRSLR (synthetic analog peptide) [Her2/neu.450.V2],193
5,ISWLGLRSLR (synthetic peptide) [Her2/neu.450],223
6,TILWKDIFHK (synthetic peptide) [Her2/neu.166],690
7,B4,58
8,B5,4260
9,HVVPWDQLFR (synthetic analog peptide) [Her2/neu.478.V2],193
10,HTVPWDQLFR (synthetic peptide) [Her2/neu.478],88
11,CVNCSQFLR (synthetic peptide) [Her2/neu.528],50
12,IVWKDIFHK (synthetic analog peptide) [Her2/neu.167.V2],853
13,IVWKDIFHR (synthetic analog peptide) [Her2/neu.167.V2R9],16
14,ILWKDIFHK (synthetic peptide) [Her2/neu.167],967
15,QLRSLTEILK (synthetic peptide) [Her2/neu.141],6170
16,TVLWKDIFHR (synthetic analog peptide) [Her2/neu.166.V2R10],76

# Target: HLA-A*6801 (human)
# Assay: as above
row,Binder,IC50 [nM]
1,IVKGGVLIQK (synthetic analog peptide) [Her2/neu.148.V2K10],27
2,B3,8
3,IVWLGLRSLR (synthetic analog peptide) [Her2/neu.450.V2],7.3
4,ISWLGLRSLR (synthetic peptide) [Her2/neu.450],73
5,TILWKDIFHK (synthetic peptide) [Her2/neu.166],200
6,B4,10
7,B5,15
8,HVVPWDQLFR (synthetic analog peptide) [Her2/neu.478.V2],3.6
9,HTVPWDQLFR (synthetic peptide) [Her2/neu.478],4
10,CVNCSQFLR (synthetic peptide) [Her2/neu.528],18
11,IVWKDIFHR (synthetic analog peptide) [Her2/neu.167.V2R9],15
12,ILWKDIFHK (synthetic peptide) [Her2/neu.167],1740
13,TVLWKDIFHR (synthetic analog peptide) [Her2/neu.166.V2R10],42

# Target: T1, HLA-A*0301 (human)
# T1 construct: Purified HLA molecule, 5 to 500 nM in the assay; also called HLA-A3
# Assay: competition with 125I-labelled probe peptide on purified HLA-A*0301, gel filtration; ratio to standard peptide 941.12
row,Binder,relative binding ratio (IC50 of standard peptide / IC50 of test peptide) [relative binding ratio]
1,"WMALESILR [HER2/neu peptide, position 888, 9 amino acids]",-0.0002
2,"WIPDGENVK [HER2/neu peptide, position 739, 9 amino acids]",0.0002
3,"YVLIAHNQVR [HER2/neu peptide, position 83, 10 amino acids]",0.0043
4,"VLVKSPNHVK [HER2/neu peptide, position 851, 10 amino acids]",0.082
5,"WMIDSECRPR [HER2/neu peptide, position 959, 10 amino acids]",-0.0002
6,"VTGASPGGLR [HER2/neu peptide, position 129, 10 amino acids]",0.0002
7,"YVMAGVGSPY [HER2/neu peptide, position 772, 10 amino acids]",0.01
8,"VSEFSRMAR [HER2/neu peptide, position 973, 9 amino acids]",-0.0002
9,"VVQGNLELTY [HER2/neu peptide, position 55, 10 amino acids]",0.0024
10,"VLQGLPREY [HER2/neu peptide, position 546, 9 amino acids]",0.0012
11,"VLIAHNQVR [HER2/neu peptide, position 84, 9 amino acids]",0.0033
12,"VTAEDGTQR [HER2/neu peptide, position 322, 9 amino acids]",0.0002
13,"YLEDVRLVHR [HER2/neu peptide, position 835, 10 amino acids]",0.0003
14,"VARCPSGVK [HER2/neu peptide, position 597, 9 amino acids]",0.01
15,"WMALESILRR [HER2/neu peptide, position 888, 10 amino acids]",0.0085

# Target: T2, HLA-A*0201 (human)
# T2 construct: Purified HLA class I molecule; also called HLA-A2.1
# Assay: competition with 125I-labelled standard peptide for purified HLA-A*0201, gel filtration; ratio to the standard peptide
row,Binder,relative binding ratio (IC50 of standard peptide / IC50 of test peptide) [ratio]
1,"FVVIQNEDL (Synthetic peptide) [HER2/neu peptide, position 986, 9 amino acids]",0.0002
2,"EILKGGVLI (Synthetic peptide) [HER2/neu peptide, position 147, 9 amino acids]",0.0001
3,"GAAKGLQSL (Synthetic peptide) [HER2/neu peptide, position 1093, 9 amino acids]",0.0001
4,"ELAALCRWGL (Synthetic peptide) [HER2/neu peptide, position 2, 10 amino acids]",0.0001
5,"DLVDAEEYLV (Synthetic peptide) [HER2/neu peptide, position 1016, 10 amino acids]",0.0002
6,"DLSVFQNLQV [HER2/neu peptide, position 421, 10 amino acids]",0.0003
7,"FVHTVPWDQL (Synthetic peptide) [HER2/neu peptide, position 476, 10 amino acids]",0.0001
8,"GAFGTVYKGI (Synthetic peptide) [HER2/neu peptide, position 729, 10 amino acids]",0.0001
9,"DVRLVHRDL (Synthetic peptide) [HER2/neu peptide, position 838, 9 amino acids]",0.0002
10,"ELGSGLALI (Synthetic peptide) [HER2/neu peptide, position 460, 9 amino acids]",0.0004
11,"DVFAFGGAV (Synthetic peptide) [HER2/neu peptide, position 1183, 9 amino acids]",0.0002
12,"DLLNWCMQI (Synthetic peptide) [HER2/neu peptide, position 821, 9 amino acids]",0.0002
13,"ELVSEFSRMA (Synthetic peptide) [HER2/neu peptide, position 971, 10 amino acids]",0.0001
14,"DLVDAEEYL (Synthetic peptide) [HER2/neu peptide, position 1016, 9 amino acids]",0.0002
15,"DVWSYGVTV (Synthetic peptide) [HER2/neu peptide, position 904, 9 amino acids]",0.0002
16,"GAMPNQAQM (T0001 prints N at position 706) [HER2/neu peptide, position 704, 9 amino acids]",0.0002
